Measured values reported in paper PMC4831154, “Expression and characterization of a novel 1,3-regioselective cold-adapted lipase from Rhizomucor endophyticus suitable for biodiesel synthesis” (Biotechnology for Biofuels, 2016).

Key:
Assay in all cases: purified protein
Format in all cases: biochemical, Mucor endophyticus
Conditions in all cases: 50 mM citrate buffer pH 6.0, 40 °C, 5 min
purified protein [1] = substrate: CCCCCCCC(=O)Oc1ccc([N+](=O)[O-])cc1
purified protein [2] = substrate: CCCCCCCCCCCC(=O)Oc1ccc([N+](=O)[O-])cc1
purified protein [3] = substrate: CCCCCCCCCCCCCC(=O)Oc1ccc([N+](=O)[O-])cc1

B1: ReLipA (Mucor endophyticus) (protein)
chain: PAAGTKGETSSAAAPHNNATMTASSYILPPIIPSRTKPGNPAFKGDVNAEAESIAKNKKWYEDHGGNFKNITKRDTETVGGMTMDLPANAPPVTTSTGSGVVTASAAQIANFKLYAGIASTAYCRGVVPLGSWTCNNCLKYVPDGKLLVTFSSLLADTNGFVLRSDSQKTIHLVFRGTNSIRSAITDLIFDLATYSPVSGAKVHRGFLASYKEVVNTYFPVVQAQLTAYPSYKVVISGHSLGGAQALLAGMDLYQRDKRLSPSNLSIYTVGCPRVGNPAFAYYVDSTGIPFSRSVNDRDIVPHVPPQAFGYLHPGVEAWDISSRVQICTANIETNKCSNSIVPFTSFVDHLTYYGINEGLCL
notes: ORF 1167 bp; SP-Sepharose purified
Km (purified protein [1]): 2300 ± 210 µM | kcat/Km (purified protein [1]): 387 M⁻¹ s⁻¹ | Km (purified protein [2]): 640 ± 60 µM | kcat/Km (purified protein [2]): 416 M⁻¹ s⁻¹ | Km (purified protein [3]): 100 ± 10 µM | kcat/Km (purified protein [3]): 1790 M⁻¹ s⁻¹
